According to US20240279284A1 (KOREA ADVANCED INSTITUTE OF SCIENCE AND TECHNOLOGY, published 2024):
Where a chain is given by its changes, count along the chain named. In names and notes the source's numbering stands.

Tests used:
[1] = molecular target: BCL-xL, endogenous, in K562, HCT-116, SW620, MEWO and A375 cancer cells (Homo sapiens (Human)) (UniProt Q07817); test: cell-based or functional assay
[2] = molecular target: MCL-1, endogenous, in K562, HCT-116, SW620, MEWO and A375 cancer cells (Homo sapiens (Human)) (UniProt Q07820); test: cell-based or functional assay
[3] = molecular target: T1, MCL-1 (172-321), biotinylated, with C-terminal biotinylation sequence (Homo sapiens (Human), UniProt Q07820 172-321); test: SPR, ratio of KD values
Method: (§1) SPR data were collected on an 8 K device (GE Healthcare). A Series S Biotin CAPture kit (GE Healthcare) was used to immobilize biotinylated anti-apoptotic BCL-2 proteins, and all experiments were conducted in HBS-EP+buffer solution (10 mM HEPES, 150 mM NaCl, 3 mM EDTA, 0.005% Surfactant P20; GE Healthcare). Biotinylated anti-apoptotic BCL-2 proteins were immobilized on the CAP chip until the response units reached 100. Serially diluted analytes were injected at a flow rate of 30 μl/min. Analytes were used at 20 nM for single concentration experiments. Dissociation constants (KD) and kinetic parameters (Kₐ and Kd) were estimated using Biacore 8 K evaluation software (GE Healthcare).

[4] = molecular target: BCL-2 (1-34:chimeric loop:92-203), biotinylated, with C-terminal biotinylation sequence (UniProt P10415 1-34; P10415 92-203); test: SPR, biotinylated BCL-2 on CAP chip
Method: as §1

[5] = molecular target: T1, MCL-1 (172-321), biotinylated, with …; test: SPR, biotinylated MCL-1 on CAP chip
Method: as §1

[6] = molecular target: T2, BCL-B (1-177;C30S/C138S), biotinylated, with C-terminal biotinylation sequence (UniProt Q9HD36 1-177); test: SPR, biotinylated BCL-B on CAP chip; target BCL-B
T2 construct: range 1-177
T2 sequence: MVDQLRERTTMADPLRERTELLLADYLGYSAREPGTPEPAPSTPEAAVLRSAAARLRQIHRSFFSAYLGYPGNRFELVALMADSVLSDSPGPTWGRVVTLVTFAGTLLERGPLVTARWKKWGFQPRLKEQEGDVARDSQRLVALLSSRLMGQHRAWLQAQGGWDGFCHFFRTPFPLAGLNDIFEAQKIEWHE
Method: as §1

[7] = molecular target: T3, BCL-W (1-164), biotinylated, with C-terminal biotinylation sequence (UniProt Q92843 1-164); test: SPR, biotinylated BCL-W on CAP chip; target BCL-W
T3 sequence: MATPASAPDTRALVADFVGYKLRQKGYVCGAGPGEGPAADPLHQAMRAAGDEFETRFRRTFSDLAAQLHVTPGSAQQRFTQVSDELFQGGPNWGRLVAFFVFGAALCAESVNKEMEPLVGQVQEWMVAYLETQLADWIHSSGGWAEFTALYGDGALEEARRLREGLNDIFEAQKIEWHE
Method: as §1

[8] = molecular target: T4, BFL-1 (1-151;C4S/C19S), biotinylated, with C-terminal biotinylation sequence (UniProt Q16548 1-151); test: SPR, biotinylated BFL-1 on CAP chip; target BFL-1
T4 construct: range 1-151; also called BFL-1 (A1)
T4 sequence: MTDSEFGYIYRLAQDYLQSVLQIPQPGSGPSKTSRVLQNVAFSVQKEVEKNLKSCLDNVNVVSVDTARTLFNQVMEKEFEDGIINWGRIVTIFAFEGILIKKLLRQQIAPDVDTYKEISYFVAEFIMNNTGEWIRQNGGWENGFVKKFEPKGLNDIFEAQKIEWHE
Method: as §1

[9] = molecular target: T1, MCL-1 (172-321), biotinylated, with …; test: SPR, MCL-1 immobilized, analyte series from 5 to 320 nM
Method: as §1

[10] = molecular target: T5, BCL-xL (1-44:85-209), biotinylated, with C-terminal biotinylation sequence (Homo sapiens (Human), UniProt Q07817 1-209, biotin on the C-terminal biotinylation sequence … (co-expressed BirA)); test: SPR, BCL-xL immobilized, analyte series from 1.25 to 80 nM
T5 construct: Form immobilised on the CAP chip for SPR; Any purification tag from pJK hTx is not described
Method: as §1

[11] = molecular target: T5, BCL-xL (1-44:85-209), biotinylated, …; test: SPR, different analyte concentrations, biotinylated BCL-xL on CAP chip
Method: as §1

MCL-1 (172-321) [12] = molecular target: T6, MCL-1 (172-321) (Homo sapiens (Human), UniProt Q07820 172-321); test: size-exclusion chromatography (Superdex 75 Increase 10/300 GL), qualitative binding assay
MCL-1 (172-321) [13] = molecular target: T6, MCL-1 (172-321); test: crystal structure
Method: Crystals were obtained by the hanging-drop vapor diffusion method at 20° C. […] The crystals were immersed briefly in a cryoprotectant solution. […] X-ray diffraction datasets were collected on beamline 5C at Pohang Accelerator Laboratory, South Korea. […] Then, automatic model building into the electron densities and structure refinement were performed using the PHENIX software suit. […] Iterative rounds of manual model building and refinement were carried out using the programs COOT and PHENIX. All structures were illustrated using the PYMOL software.

[14] = molecular target: T5, BCL-xL (1-44:85-209), biotinylated, …; test: SPR, ratio of KD values
Method: as §1

[15] = molecular target: T5, BCL-xL (1-44:85-209), biotinylated, …; test: SPR, biotinylated BCL-xL on CAP chip
Method: as §1

[16] = molecular target: T5, BCL-xL (1-44:85-209), biotinylated, …; test: comparison of KD values (SPR)
[17] = molecular target: T1, MCL-1 (172-321), biotinylated, with …; test: comparison of KD values (SPR)

T5 sequence (Q07817 other isoform, or with tags, fused parts or gaps): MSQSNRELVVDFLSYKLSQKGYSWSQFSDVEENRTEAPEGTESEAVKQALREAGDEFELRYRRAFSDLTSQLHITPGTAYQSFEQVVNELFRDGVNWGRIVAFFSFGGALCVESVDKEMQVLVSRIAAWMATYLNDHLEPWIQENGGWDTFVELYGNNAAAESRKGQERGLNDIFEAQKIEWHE
T1 sequence (Q07820 other isoform, or with tags, fused parts or gaps): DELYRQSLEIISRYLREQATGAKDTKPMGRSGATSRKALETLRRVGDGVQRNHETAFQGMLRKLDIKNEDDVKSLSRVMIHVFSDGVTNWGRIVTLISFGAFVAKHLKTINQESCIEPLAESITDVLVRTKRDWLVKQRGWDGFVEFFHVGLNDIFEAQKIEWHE
BCL-xL, endogenous, in K562, HCT-116, SW620, MEWO and A375 cancer cells (Homo sapiens (Human)), sequence (Q07817 whole entry): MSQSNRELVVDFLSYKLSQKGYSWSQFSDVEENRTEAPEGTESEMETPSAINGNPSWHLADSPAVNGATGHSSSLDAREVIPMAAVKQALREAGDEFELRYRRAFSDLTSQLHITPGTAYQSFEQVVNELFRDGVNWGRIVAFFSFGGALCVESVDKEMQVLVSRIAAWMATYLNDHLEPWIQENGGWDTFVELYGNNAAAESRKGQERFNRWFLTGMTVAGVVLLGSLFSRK
T6 sequence (Q07820 172-321): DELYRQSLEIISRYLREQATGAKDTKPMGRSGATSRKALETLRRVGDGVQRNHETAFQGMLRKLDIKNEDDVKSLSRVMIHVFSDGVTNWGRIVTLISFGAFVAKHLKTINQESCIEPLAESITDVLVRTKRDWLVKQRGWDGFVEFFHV
BCL-2 (1-34:chimeric loop:92-203), biotinylated, with C-terminal biotinylation sequence, sequence (P10415 other isoform, or with tags, fused parts or gaps mutant): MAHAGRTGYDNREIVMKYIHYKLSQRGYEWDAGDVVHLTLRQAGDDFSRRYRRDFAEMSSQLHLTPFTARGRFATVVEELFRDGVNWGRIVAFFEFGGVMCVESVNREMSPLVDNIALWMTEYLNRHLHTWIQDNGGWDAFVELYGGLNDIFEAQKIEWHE

B1: 4H_αBM_3_CTS, 3×FLAG-tagged, expressed in cancer cell lines by lentivirus (designed binder, not shown: small tags and cut ends)
chain: MDAKKVAKKAAIQAARRITELAQVLVELLKEALKLDLTQEMRKKLIERYAAAIIRAIGDINNAIYQAKQEAEKLKKAGLVDSDQLDALLRALDELQKVASKAANQLGRLFEEALKRLDKDNGGEEEKDRTAKWFEFEARAIELALRLAAIGDVFDLEKEWRKLKPRMVILRLLRYIVRLVWRMH
[1]
  cell viability (WST-1), A375 cells: 11%
  cell viability (WST-1), HCT-116 cells: 50%
  cell viability (WST-1), K562 cells: 33%
  cell viability (WST-1), MEWO cells: 33%
  cell viability (WST-1), SW620 cells: 27%
[2]
  cell viability (WST-1), A375 cells: 11%
  cell viability (WST-1), HCT-116 cells: 50%
  cell viability (WST-1), K562 cells: 33%
  cell viability (WST-1), MEWO cells: 33%
  cell viability (WST-1), SW620 cells: 27%

B2: 4H_αBM_2 (I143L/I54E/G58E) (designed binder)
chain: MDAKKVAKKAAIQAARRITELAQVLVELLKEALKLDLTQEMRKKLIERYAAAIERAIEDINNAIYQAKQEAEKLKKAGLVDSDQLDALLRALDELQKVASKAANQLGRLFEEALKRLDKDNGGEEEKDRTAKWFEFEARAIELALRLAAIGDVFDLEKEWRKLK
notes: also called 4H_αBM_3 (I54E/G58E)
[3]
  fold reduced affinity (against 4H_αBM_2 (I54E/G58E)): ~7 fold
[4]
  Kd: 2.04 nM
[5]
  Kd: 133 nM
[6]
  Kd: 146 nM
[7]
  Kd: 1.59 nM
[8]
  Kd: 16.4 nM
[9]
  Kd: 113 nM
[10]
  Kd: 0.82 nM

B3: 4H_αBM_2 (I54E/G58E) (designed binder)
chain: B2 chain with L143I
notes: also called 4H_αBM_2 (154E/G58E)
[5]
  Kd: 19.2 nM

B4: 4H_αBM_1 (designed binder)
chain: B2 chain with I12D, R16N, T19R, E54I, E58G, E142A, L143I, R146T
notes: also called D81
[11]
  Kd: 8.57 nM
MCL-1 (172-321) [12]
  binding result: binds

B5: 4H_αBM_2 (designed binder)
chain: B2 chain with E54I, E58G, L143I
MCL-1 (172-321) [13]
  binding result: binds
[14]
  fold stronger binding than 4H_αBM_1: 40 fold
[15]
  Kd: 0.21 nM

B6: 4H_αBM_3 (designed binder)
chain: B2 chain with E54I, E58G
notes: also called 4H_αBM_2 (I143L)
[16]
  fold higher binding affinity than human BIM BH3: > 8 fold
[17]
  fold higher binding affinity than human BIM BH3: > 8 fold
